This passage reports CDC Depletion Efficiency (complement-dependent cytotoxicity killing) results from patent publication US20250339558A1.

The target in the assay is CD20 (UniProt P11836). Put plainly: cell-based or functional assay.
UniProt P11836, sequence (P11836 whole entry): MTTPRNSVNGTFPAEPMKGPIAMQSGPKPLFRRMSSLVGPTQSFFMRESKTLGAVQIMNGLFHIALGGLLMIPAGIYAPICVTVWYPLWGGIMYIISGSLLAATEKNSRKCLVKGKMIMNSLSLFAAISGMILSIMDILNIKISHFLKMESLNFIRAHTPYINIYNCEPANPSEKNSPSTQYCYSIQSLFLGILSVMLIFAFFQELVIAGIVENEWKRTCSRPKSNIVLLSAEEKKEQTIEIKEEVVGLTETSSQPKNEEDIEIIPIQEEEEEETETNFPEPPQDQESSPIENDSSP

For the substance Rituximab (antibody), the CDC Depletion Efficiency (complement-dependent cytotoxicity killing) was determined as 60%.
